Measurements as given in PMC10635571.

Molecular target: hnRNPK (human (endogenous in HeLa)) (UniProt P61978)
Assay: native gel or EMSA; blue native PAGE (4-13%) of the lhCLIP sample: HeLa cells UV-crosslinked, lysate immunoprecipitated with anti-hnRNPK, MNase digestion, pCp-biotin labelling, ligation, eluted from beads at 70°C for 10 min without reducing agents; blotted with anti-hnRNPK antibody

stoichiometry N: 2
Substance: hnRNPK, P61978 1-463 (natural protein; other documents disagree on this pair)
